Measurements: patent US20180292411A1

Target: S100A9 (human) (UniProt P06702)
Assay: cell-based or functional assay

S100A9 (human), sequence (P06702 whole entry): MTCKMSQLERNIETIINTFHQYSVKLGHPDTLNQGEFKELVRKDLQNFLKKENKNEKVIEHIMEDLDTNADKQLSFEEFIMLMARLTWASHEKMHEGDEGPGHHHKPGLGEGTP

colony-forming capacity of MDS BM-MNC (fold greater than controls): < 6.6
Substance: S100A9 high-affinity chimeric (CD33-IgG1) decoy receptor (from UniProt P20138 18-259) (Fc fusion)
